Residue numbers refer to the chain shown, from its start.
T1: EC3 deletion mutant of human CDH6 (human, UniProt P55285 54-790)
T1 construct: In p3×FLAG-CMV-9; also called EC3-deleted hCDH6
T1 sequence: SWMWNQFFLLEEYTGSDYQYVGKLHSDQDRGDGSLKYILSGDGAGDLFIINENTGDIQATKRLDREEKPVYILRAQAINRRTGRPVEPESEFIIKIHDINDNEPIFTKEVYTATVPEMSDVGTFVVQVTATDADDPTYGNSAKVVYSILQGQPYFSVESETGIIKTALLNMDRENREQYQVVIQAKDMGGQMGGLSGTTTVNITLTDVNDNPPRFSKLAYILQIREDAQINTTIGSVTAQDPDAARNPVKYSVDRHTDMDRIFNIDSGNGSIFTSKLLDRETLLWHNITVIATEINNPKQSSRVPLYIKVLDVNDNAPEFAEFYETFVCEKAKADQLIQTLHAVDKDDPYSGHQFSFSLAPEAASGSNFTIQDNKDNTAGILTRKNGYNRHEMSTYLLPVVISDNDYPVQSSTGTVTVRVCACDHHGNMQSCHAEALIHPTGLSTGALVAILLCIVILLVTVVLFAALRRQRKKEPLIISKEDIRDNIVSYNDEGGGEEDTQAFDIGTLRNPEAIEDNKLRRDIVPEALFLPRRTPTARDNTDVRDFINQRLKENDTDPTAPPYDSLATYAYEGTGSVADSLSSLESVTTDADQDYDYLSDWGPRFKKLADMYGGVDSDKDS

T2: rat CDH6 (on cells) (rat, UniProt P55280 54-789)
T2 construct: also called rCDH6
T2 sequence: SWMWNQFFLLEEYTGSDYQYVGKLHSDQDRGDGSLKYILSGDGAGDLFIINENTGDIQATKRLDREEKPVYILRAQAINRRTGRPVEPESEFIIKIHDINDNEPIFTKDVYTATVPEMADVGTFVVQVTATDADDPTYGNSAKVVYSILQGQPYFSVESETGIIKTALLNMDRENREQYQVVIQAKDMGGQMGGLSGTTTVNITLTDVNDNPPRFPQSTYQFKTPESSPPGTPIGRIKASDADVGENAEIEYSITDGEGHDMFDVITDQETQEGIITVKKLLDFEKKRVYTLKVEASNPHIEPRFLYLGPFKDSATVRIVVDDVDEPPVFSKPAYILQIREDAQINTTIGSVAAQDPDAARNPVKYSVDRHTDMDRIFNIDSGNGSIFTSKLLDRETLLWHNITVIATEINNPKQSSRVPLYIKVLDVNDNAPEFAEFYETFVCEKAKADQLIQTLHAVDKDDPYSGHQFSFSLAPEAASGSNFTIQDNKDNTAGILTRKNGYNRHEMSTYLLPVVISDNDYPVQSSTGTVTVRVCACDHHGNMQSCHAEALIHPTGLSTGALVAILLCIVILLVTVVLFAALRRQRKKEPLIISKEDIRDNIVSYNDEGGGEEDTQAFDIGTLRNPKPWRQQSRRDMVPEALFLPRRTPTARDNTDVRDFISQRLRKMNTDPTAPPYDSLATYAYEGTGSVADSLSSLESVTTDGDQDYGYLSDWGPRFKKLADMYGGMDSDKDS

B1: H02L02 antibody (antibody, human IgG1, kappa, V domains shown)
VH: EVQLVQSGAEVKKPGASVKVSCKASGYTFTRNFMHWVRQAPGQGLEWMGWIYPGDGETEYNQKFQGRVTITADRSTSTAYMELSSLRSEDTAVYFCARGVYGGFAGGYFDFWGQGTLVTVSS
VL: DIQMTQSPSSLSASVGDRVTITCKASQNIYKNLAWYQQKPGKAPKLLIYDANTLQTGVPSRFSGSGSGSDFTLTISSLQPEDFATYFCQQYYSGWAFGQGTKVEIKR
notes: Humanized IgG1/kappa (hH02 + hL02); also called humanized hG019 antibody H02L02
B2: H01L02 antibody (antibody, human IgG1, kappa, V domains shown)
VH: B1 VH with N61A, R74T, F95Y
VL: B1 VL
notes: Humanized IgG1/kappa (hH01 + hL02); also called humanized hG019 antibody H01L02; labeled H01L02
B3: H02L03 antibody (antibody, human IgG1, kappa, V domains shown)
VH: B1 VH
VL: B1 VL with P40L, K42E, A43G, S69T, F87Y
notes: Humanized IgG1/kappa (hH02 + hL03); also called humanized hG019 antibody H02L03
B4: H04L02 antibody (antibody, human IgG1, kappa, V domains shown)
VH: B1 VH with E1Q, V37I, N61A, I70L, F95Y
VL: B1 VL
notes: Humanized IgG1/kappa (hH04 + hL02); also called humanized hG019 antibody H04L02

target: T1, EC3 deletion mutant of human CDH6; test: flow cytometry; 293α cells transfected with EC3-deleted hCDH6 (open) vs untransfected control cells (shaded); APC anti-human IgG
Method: The cells were cultured overnight under conditions of 37° C. and 5% CO₂, and thereafter, a cell suspension was prepared. […] Thereafter, the cells were suspended by the addition of each of the 4 humanized hG019 antibodies (clone Nos: H01L02, H02L02, H02L03 and H04L02), which had been prepared in Example 5)-5-3, or the anti-CDH6 antibody NOV0712, which had been prepared in Reference Example 1, or human IgG1 (Calbiochem) as a negative control. The cells were left standing at 4° C. for 1 hour. The cells were washed twice with PBS supplemented with 5% FBS, and then suspended by the addition of APC-anti-human IgG goat F(ab′)2 (Jackson ImmunoResearch Laboratories, Inc.) that had been 500-fold diluted with PBS supplemented with 5% FBS. The cells were left standing at 4° C. for 1 hour. The cells were washed twice with PBS supplemented with 5% FBS, followed by detection using a flow cytometer (Canto II; BD Biosciences). The data was analyzed using FlowJo (Tree Star, Inc.). In the histograms of FIGS. 7-1 to 7-6, the abscissa depicts APC fluorescence intensity indicating the amount of the antibody bound, and the ordinate depicts cell count. […] Fluorescence intensity is enhanced when the antibody binds to full-length hCDH6 or each EC domain deletion mutant on cell surface. The human IgG1 control binds to none of the transfected cells.

Binder	binding result
B1	no binding (tested: not given (single concentration))
B2	no binding (tested: not given (single concentration))
B3	no binding (tested: not given (single concentration))
B4	no binding (tested: not given (single concentration))

target: T2, rat CDH6 (on cells); test: flow cytometry, MFI vs antibody concentration; 293α cells transiently transfected with rCDH6; PE anti-human IgG Fc
Method: The cells were cultured overnight under conditions of 37° C. and 5% CO₂, and thereafter, a cell suspension was prepared. […] Thereafter, the cells were suspended by the addition of each of the 4 humanized hG019 antibodies (clone Nos: H01L02, H02L02, H02L03 and H04L02), which had been prepared in Example 5)-5-3, or human IgG1 control (Calbiochem). The cells were left standing at 4° C. for 1 hour. The cells were washed twice with PBS supplemented with 5% FBS, and then suspended by the addition of anti-human IgG, Fc(gamma) PE goat F(ab′) (Jackson ImmunoResearch Laboratories, Inc.) that had been 500-fold diluted with PBS supplemented with 5% FBS. The cells were left standing at 4° C. for 1 hour. The cells were washed twice with PBS supplemented with 5% FBS, followed by detection using a flow cytometer (Canto II; BD Biosciences). The data was analyzed using FlowJo (Tree Star, Inc.). In FIGS. 6-1 and 6-2, the abscissa depicts antibody concentration, and the ordinate depicts the amount of the antibody bound based on mean fluorescence intensity. As shown in FIGS. 6-1 and 6-2, the human IgG1 control as a negative control binds to none of the CDH6-transfected cells. The 4 humanized hG019 antibodies (clone Nos: H01L02, H02L02, H02L03 and H04L02) bind to human CDH6 and cynomolgus monkey CDH6, but bind to neither mouse nor rat CDH6. None of the antibodies bind to the cells transfected with the empty vector pcDNA3.1 as a negative control.

binding result	Binder
no binding (tested: about 4 nM)	B1
no binding (tested: about 4 nM)	B2
no binding (tested: about 4 nM)	B3
no binding (tested: about 4 nM)	B4

Source: patent US20200171163A1 (Daiichi Sankyo, published 2020)
